Results taken from the supplement of paper PMC9112550, “Optimization of the antimicrobial peptide Bac7 by deep mutational scanning” (BMC Biology, 2022).

System: Escherichia coli TOP10
Experiment: shrunken log2 fold change of peptide-encoding DNA abundance (4.5 h post-induction vs induction); higher = less antimicrobial activity (less host growth inhibition)
Settings: time post-induction: 4.5 h; library: site-saturation at positions 5, 18, 19, 20
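Also: peptides expressed intracellularly from a pBAD plasmid library in pooled LB shake-flask culture, induced with 0.3% L-arabinose, DNA abundance read by NGS, three biological replicates, DESeq2 with apeglm shrinkage.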

Row | Sequence | shrunken log2 fold change
1 | RRIRSRPPRLPRPRPRPMPTPRP | 0.358
2 | RRIRRRPPRLPRPRPRPVKPPRP | 0.265
3 | RRIRNRPPRLPRPRPRPQRNPRP | -0.109
4 | RRIRMRPPRLPRPRPRPACVPRP | 0.428
5 | RRIRLRPPRLPRPRPRPECWPRP | 0.587
6 | RRIRERPPRLPRPRPRPVWFPRP | -0.0467
7 | RRIRHRPPRLPRPRPRPQFAPRP | 0.0852
8 | RRIRYRPPRLPRPRPRPARNPRP | -0.0503
9 | RRIRHRPPRLPRPRPRPVSAPRP | 0.0852
10 | RRIRIRPPRLPRPRPRPNEWPRP | -0.00088
11 | RRIRGRPPRLPRPRPRPMETPRP | 0.00487
12 | RRIRNRPPRLPRPRPRPYPIPRP | -0.0592
13 | RRIRLRPPRLPRPRPRPCDEPRP | -0.0824
14 | RRIRQRPPRLPRPRPRPPANPRP | 0.409
15 | RRIRCRPPRLPRPRPRPTFCPRP | -0.0442
16 | RRIRFRPPRLPRPRPRPIHKPRP | -0.775
17 | RRIRIRPPRLPRPRPRPRHPPRP | -0.0642
18 | RRIRHRPPRLPRPRPRPGNMPRP | -0.121
19 | RRIRDRPPRLPRPRPRPQNTPRP | -0.605
20 | RRIRFRPPRLPRPRPRPKKHPRP | -0.264
21 | RRIRSRPPRLPRPRPRPWLLPRP | -0.337
22 | RRIRVRPPRLPRPRPRPVTEPRP | -0.164
23 | RRIRARPPRLPRPRPRPISFPRP | 0.323
24 | RRIRGRPPRLPRPRPRPGMVPRP | 1.46
25 | RRIRSRPPRLPRPRPRPLANPRP | 0.271

Row | Sequence | shrunken log2 fold change
26 | RRIRYRPPRLPRPRPRPEEYPRP | -0.255
27 | RRIRNRPPRLPRPRPRPTYYPRP | -0.325
28 | RRIRIRPPRLPRPRPRPDPHPRP | -0.314
29 | RRIRIRPPRLPRPRPRPQNPPRP | -0.38
30 | RRIRGRPPRLPRPRPRPDKKPRP | 0.878
31 | RRIRIRPPRLPRPRPRPCEMPRP | 0.0583
32 | RRIRVRPPRLPRPRPRPYTSPRP | -0.0679
33 | RRIRFRPPRLPRPRPRPNWHPRP | -0.0729
34 | RRIRWRPPRLPRPRPRPLVSPRP | 1.59
35 | RRIRTRPPRLPRPRPRPQGYPRP | -0.943
36 | RRIRQRPPRLPRPRPRPCVPPRP | -0.0509
37 | RRIRVRPPRLPRPRPRPLHYPRP | -0.088
38 | RRIRQRPPRLPRPRPRPNGIPRP | -0.0272
39 | RRIRPRPPRLPRPRPRPRNDPRP | -0.479
40 | RRIRMRPPRLPRPRPRPQCPPRP | -0.181
41 | RRIRFRPPRLPRPRPRPMMNPRP | -0.77
42 | RRIRTRPPRLPRPRPRPFDNPRP | -1.32
43 | RRIRYRPPRLPRPRPRPCMEPRP | -0.0771
44 | RRIRDRPPRLPRPRPRPYIYPRP | -0.184
45 | RRIRVRPPRLPRPRPRPFDSPRP | -0.204
46 | RRIRQRPPRLPRPRPRPPHDPRP | 1.12
47 | RRIRVRPPRLPRPRPRPMVFPRP | 0.0611
48 | RRIRARPPRLPRPRPRPYPMPRP | 0.019
49 | RRIRARPPRLPRPRPRPFLWPRP | -0.0716
50 | RRIRWRPPRLPRPRPRPFELPRP | -0.285

Row | Sequence | shrunken log2 fold change
51 | RRIRKRPPRLPRPRPRPWWLPRP | 0.252
52 | RRIRQRPPRLPRPRPRPEILPRP | 0.00769
53 | RRIRTRPPRLPRPRPRPQDTPRP | -0.284
54 | RRIRQRPPRLPRPRPRPNGFPRP | -0.258
55 | RRIRVRPPRLPRPRPRPNADPRP | -0.00824
56 | RRIRGRPPRLPRPRPRPAGEPRP | 0.479
57 | RRIRCRPPRLPRPRPRPRRLPRP | 0.133
58 | RRIRARPPRLPRPRPRPTIKPRP | 0.0966
59 | RRIRIRPPRLPRPRPRPNNGPRP | -0.589
60 | RRIRTRPPRLPRPRPRPIEMPRP | -0.25
61 | RRIRHRPPRLPRPRPRPVSGPRP | -0.188
62 | RRIRSRPPRLPRPRPRPRKSPRP | 0.139
63 | RRIRSRPPRLPRPRPRPFHLPRP | -0.321
64 | RRIRMRPPRLPRPRPRPMHWPRP | -0.0799
65 | RRIRARPPRLPRPRPRPDCTPRP | 0.27
66 | RRIRYRPPRLPRPRPRPVVYPRP | 0.0874
67 | RRIRWRPPRLPRPRPRPMQKPRP | -0.0122
68 | RRIRDRPPRLPRPRPRPCHQPRP | -0.328
69 | RRIRTRPPRLPRPRPRPNQSPRP | -0.187
70 | RRIRIRPPRLPRPRPRPNFYPRP | -0.565
71 | RRIRYRPPRLPRPRPRPIGGPRP | -0.4
72 | RRIRDRPPRLPRPRPRPQDYPRP | -0.112
73 | RRIRVRPPRLPRPRPRPAWRPRP | 0.712
74 | RRIRYRPPRLPRPRPRPIFEPRP | -0.833
75 | RRIRQRPPRLPRPRPRPDSEPRP | 0.138

Row | Sequence | shrunken log2 fold change
76 | RRIRMRPPRLPRPRPRPYSAPRP | 0.0186
77 | RRIRRRPPRLPRPRPRPAAIPRP | 0.181
78 | RRIRKRPPRLPRPRPRPLYYPRP | -0.458
79 | RRIRIRPPRLPRPRPRPQWEPRP | -0.0938
80 | RRIRMRPPRLPRPRPRPMSIPRP | -0.0109
81 | RRIRHRPPRLPRPRPRPNPWPRP | -0.248
82 | RRIRWRPPRLPRPRPRPHNRPRP | -0.205
83 | RRIRIRPPRLPRPRPRPPCAPRP | 0.201
84 | RRIRFRPPRLPRPRPRPIDPPRP | -0.526
85 | RRIRRRPPRLPRPRPRPPLHPRP | 0.695
86 | RRIRSRPPRLPRPRPRPCCCPRP | -0.000964
87 | RRIRTRPPRLPRPRPRPRFNPRP | -0.286
88 | RRIRPRPPRLPRPRPRPLVGPRP | 0.408
89 | RRIRHRPPRLPRPRPRPSLNPRP | -0.51
90 | RRIRERPPRLPRPRPRPASCPRP | -0.211
91 | RRIRYRPPRLPRPRPRPHVTPRP | -0.147
92 | RRIRARPPRLPRPRPRPHACPRP | 0.066
93 | RRIRNRPPRLPRPRPRPMNDPRP | 0.42
94 | RRIRARPPRLPRPRPRPHYDPRP | -0.0354
95 | RRIRERPPRLPRPRPRPSGPPRP | -0.203
96 | RRIRVRPPRLPRPRPRPYWQPRP | -0.0663
97 | RRIRIRPPRLPRPRPRPKDEPRP | -0.00382
98 | RRIRSRPPRLPRPRPRPRMDPRP | -0.291
99 | RRIRARPPRLPRPRPRPKCEPRP | 0.367
100 | RRIRKRPPRLPRPRPRPGKCPRP | 0.0131

Row | Sequence | shrunken log2 fold change
101 | RRIRVRPPRLPRPRPRPWMTPRP | -0.0714
102 | RRIRWRPPRLPRPRPRPDKEPRP | 0.0411
103 | RRIRYRPPRLPRPRPRPRYCPRP | -0.495
104 | RRIRIRPPRLPRPRPRPTGSPRP | 0.087
105 | RRIRCRPPRLPRPRPRPPYEPRP | -0.306
106 | RRIRFRPPRLPRPRPRPYMQPRP | -0.68
107 | RRIRLRPPRLPRPRPRPADFPRP | -0.0534
108 | RRIRMRPPRLPRPRPRPVQAPRP | 1.26
109 | RRIRTRPPRLPRPRPRPIVSPRP | -0.0631
110 | RRIRTRPPRLPRPRPRPSLDPRP | -0.286
111 | RRIRLRPPRLPRPRPRPPQSPRP | 0.0818
112 | RRIRPRPPRLPRPRPRPHYVPRP | -0.348
113 | RRIRIRPPRLPRPRPRPLKCPRP | 0.0563
114 | RRIRTRPPRLPRPRPRPSMSPRP | -0.655
115 | RRIRRRPPRLPRPRPRPSVHPRP | -0.278
116 | RRIRVRPPRLPRPRPRPVPMPRP | 0.0779
117 | RRIRFRPPRLPRPRPRPPTFPRP | -0.0402
118 | RRIRDRPPRLPRPRPRPHPRPRP | 0.081
119 | RRIRIRPPRLPRPRPRPGQCPRP | -0.13
120 | RRIRMRPPRLPRPRPRPNINPRP | -0.356
121 | RRIRCRPPRLPRPRPRPYKDPRP | -0.492
122 | RRIRFRPPRLPRPRPRPYWWPRP | -0.198
123 | RRIRLRPPRLPRPRPRPCDVPRP | -0.255
124 | RRIRYRPPRLPRPRPRPIDEPRP | -0.438
125 | RRIRPRPPRLPRPRPRPVWTPRP | 0.224
